Experimental data from patent publication US20220306734A1 (H LUNDBECK A S, published 2022).
Positions count from the first letter of the chain named.

B1: mGluR5 Ab24 (antibody, V domains shown)
VH: QQQLEESGGGLVKPGGTLTLTCKASGIDFSNVYYMCWVRQAPGKGPEWIACIYVGDGSTYDASWARGRFTISKTSSTTVTLQMISLTAADTATYFCAGGTGVGSYGYSLWGPGTLVTVSS
VL: DIVMTQTPASVEAAVGGTVTIKCQASESIYSNLAWYHQKPGQPPKLLIYRASNLESGVPSRFKGSGSGTDFTLTISDLECADAATYYCQGYYASVVTNGFGGGTEVVVKR
B2: mGluR5 Ab25 (antibody, V domains shown)
VH: QRQLEESGGGLVKPGGALTLTCKASGIDFSSYYYRCWVRQAPGKGLEWIACIYTGDGTTYYASWAKGRFTTSKTSSTTVTLQMTSLTAADTATYFCARGSGVGSYGYNFWGPGTLVTVSS
VL: B1 VL with H37Q, N53T, D70E, V95I, V96I, G99A
B3: mGluR5 Ab26 (antibody, V domains shown)
VH: QSVEESGGGLVKPEGSLTLTCKASGFDLSSYYYMCWVRQAPGKGPEWIACIYAGDGTTYYASWAKGRFTISKTSSTTVTLQMTSLTAADTATYFCARGTGVGSYGYNLWGPGTLVTVSS
VL: B1 VL with S28N, H37Q, D70E, A81D, A93P, V95A, G99A
B4: mGluR5 Ab27 (antibody, V domains shown)
VH: B3 VH with E14G, S16T, F26I, L28F, Y32H, P45L, A53N, T57D, T99S
VL: B1 VL with H37Q, D70E, V95T, V96T, G99A
B5: mGluR5 Ab28 (antibody, V domains shown)
VH: B2 VH with R2Q, A17T, A24G, S30N, S31D, R35M, T54N, T58E, S63N, T71I
VL: B1 VL with H37Q, E55A, D70E, V95T, G99A
B6: mGluR5 Ab29 (antibody, V domains shown)
VH: B2 VH with R2Q, A17T, Y33H, R35M, T54N, T58D, T71I, F109L
VL: B1 VL with S28N, H37Q, D70E, A81D, A93P, V95A, G99A
B7: mGluR5 Ab2 (antibody, V domains shown)
VH: B2 VH with R2Q, A17T, S31G, R35M, I52V, T58G, T71I, F109L, P112Q
VL: B1 VL with H37Q, D70E, S94I, V95T, V96T, G99A
notes: Rabbit variable regions on human heavy and light chain constant regions (chimeric)
B8: mGluR5 Ab10 (antibody, V domains shown)
VH: QSLEESGGRLVTPGTPLTLTCTVSGIDLSSYAVGWVRQAPGKGLEYIGIIYASGNTWYASWVKGRFTISKTSTTVDLKMTSLTTEDTATYFCARGHGATYDYFNLWGPGTLVTVSS
VL: AYDMTQTPASVEVAVGGTVTIKCQASQSISSWLAWYQQKPGQPPKLLIYDASDLASGVPSRFKGSGSGTEYTLTISGVQCDDAATYYCQQGLATANVDNVFGGGTEVVVKR
notes: as for B7
B9: mGluR5 Ab11 (antibody, V domains shown)
VH: QSLEESGGGLVKPGGTLTLTCTASGFSFSSSYWICWVRQAPGKGLEWIGCIYGSTDAYNANWAKGRFAISQTSSTTVTLQMTSLPAADTATYFCARHDGDIGWTLDLWGPGTLVTVSS
VL: AYDMTQTPASVEVAVGGTVTIKCQASLTIGTRLAWYQQKPGQPPKLLIYKASTLASGVSSRFKGSGSGTQFALTISDLECADAATYYCQQAAYVTDIDNAFGGGTEVVVKR
notes: as for B7
B10: mGluR5 Ab12 (antibody, V domains shown)
VH: QSVEESGGRLVTPGTPLTLTCTVSGIDLSSNAMGWVRQAPGKGLEWIGIIYASGNAWYANWVKGRFTISKTSTTVDLKITSPTTEDTATYFCARDATATWDYFNLWGQGTLVTVSS
VL: AYDMTQTPSSVSAAVGGTVTIKCQASQSISNWLSWYQQKPGQPPKLLIYRASTLASGVSSRFSGSGSGTEFTLTISDLECADAATYYCQQGYSVANVDNAFGGGTEVVVKR
notes: as for B7
B11: mGluR5 Ab5 (antibody, V domains shown)
VH: QEQLVESGGGLVQPEGSLTLTCTASGIDFSSGYFMCWVRQAPGKGLEWIACISPYSDNTWYANWAKGRFTISKTSSTTVTLQMTSLTAADTAAYRCARTMAIGAYNPFKLWGQGTLVTVSS
VL: ALVMTQTPSSVSAAVGGTVTINCQASQNIYSNLAWYQQKPGQRPKLLIYDASDLASGVSSRVKGSGSGTEFTLTISDLECADAATYYCQGYYSGNAFGGGTEVVVKR
notes: as for B7
B12: mGluR5 Ab6 (antibody, V domains shown)
VH: QSLEESGGRLVTPGGTLTLTCTVSGIDLSSYAMSWVRQAPGKGLEWIGIIYASGNTWYANWVKGRFTISKTSTTVDLKMTSPTTEDTATYFCARDSSATFNYLDLWGQGTLVTVSS
VL: AFHMTQTPASMEVAVGGTVTMKCQASESIDTYLNWYQQKPGQPPKLLIYQASKLASGVPSRFKGSGSGTEFTLTISGVECADAATYYCQQGWSTNDVDNVFGGGTEVVVKR
notes: as for B7
B13: mGluR5 Ab7 (antibody, V domains shown)
VH: QSVEESGGRLVTPGTPLTLTCTVSGFSLSRYAMGWVRHVPGKGLEWIGIIYASGSTYYASWAKGRFTISKTSTTVDLKITSPTTEDTATYFCARSRTATYDAVDPWGPGTLVTVSS
VL: AYDMTQTPASVSEPVGGTVTIKCQASQSISSYLSWYQQKPGQPPKLLIYEASTLASGVSSRFKGSGSGTEYTLTISDLECDDAAAYYCQQDLSGSNLDNSFGGGTEVVVKR
notes: as for B7
B14: mGluR5 Ab9 (antibody, V domains shown)
VH: QSVEESGGRLVTPGTPLTLTCTVSGFSLNNYAMNWIRQAPGKGLEWIGIIYGSGSTYYASWAKGRFTASKTSTTVDLKMTSLTTEDTATYFCARDELAAGINYFTLWGQGTLVTVSS
VL: ALVMTQTPASVEVAVGGTVTIKCQASQNIIDWCSWYQQKLGQPPKLLIYEASKLASGVPSRFKGSGSGTQFTLTISGVECADAATYYCQQGYSPSGVDNVFGGGTEVVVKR
notes: as for B7

Biological target: human mGluR5 extracellular domain (human-mGluR5-ECD) (human) (UniProt P41594)
Sequence (P41594 other isoform, or with tags, fused parts or gaps): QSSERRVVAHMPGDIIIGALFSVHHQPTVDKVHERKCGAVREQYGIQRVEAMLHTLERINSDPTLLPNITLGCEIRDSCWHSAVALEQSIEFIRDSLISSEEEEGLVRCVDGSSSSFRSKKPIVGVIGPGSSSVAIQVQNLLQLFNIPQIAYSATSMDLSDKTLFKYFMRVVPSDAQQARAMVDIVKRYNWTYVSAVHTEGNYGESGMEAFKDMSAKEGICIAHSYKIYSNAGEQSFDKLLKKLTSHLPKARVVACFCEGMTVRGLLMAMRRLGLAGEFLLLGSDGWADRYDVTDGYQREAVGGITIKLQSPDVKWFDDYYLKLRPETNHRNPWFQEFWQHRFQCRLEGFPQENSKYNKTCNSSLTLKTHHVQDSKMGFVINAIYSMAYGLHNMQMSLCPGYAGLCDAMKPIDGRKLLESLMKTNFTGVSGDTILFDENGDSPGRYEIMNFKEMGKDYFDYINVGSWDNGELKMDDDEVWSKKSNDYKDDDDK
Assay: AlphaLISA, biotinylated ECD

Binder | EC50 [nM]
B1 | < 2
B2 | < 2
B3 | < 2
B4 | < 2
B5 | < 2
B6 | < 2

Biological target: human mGluR5 extracellular domain (human-mGluR5-ECD) (human) (UniProt P41594)
Assay: HTRF, soluble ECD

Binder | EC50 [nM]
B7 | < 2
B8 | < 2
B9 | < 2
B10 | < 2
B11 | < 2
B12 | < 2
B13 | < 2
B14 | < 2

Biological target: T1, human mGluR1 extracellular domain (human-mGluR1-ECD) (human, UniProt Q13255 19-592, limits assumed)
T1 construct: ECD construct made 'in a similar fashion' to the human mGluR5 one; also called hu-mGluR1
T1 sequence (Q13255 other isoform, or with tags, fused parts or gaps limits assumed): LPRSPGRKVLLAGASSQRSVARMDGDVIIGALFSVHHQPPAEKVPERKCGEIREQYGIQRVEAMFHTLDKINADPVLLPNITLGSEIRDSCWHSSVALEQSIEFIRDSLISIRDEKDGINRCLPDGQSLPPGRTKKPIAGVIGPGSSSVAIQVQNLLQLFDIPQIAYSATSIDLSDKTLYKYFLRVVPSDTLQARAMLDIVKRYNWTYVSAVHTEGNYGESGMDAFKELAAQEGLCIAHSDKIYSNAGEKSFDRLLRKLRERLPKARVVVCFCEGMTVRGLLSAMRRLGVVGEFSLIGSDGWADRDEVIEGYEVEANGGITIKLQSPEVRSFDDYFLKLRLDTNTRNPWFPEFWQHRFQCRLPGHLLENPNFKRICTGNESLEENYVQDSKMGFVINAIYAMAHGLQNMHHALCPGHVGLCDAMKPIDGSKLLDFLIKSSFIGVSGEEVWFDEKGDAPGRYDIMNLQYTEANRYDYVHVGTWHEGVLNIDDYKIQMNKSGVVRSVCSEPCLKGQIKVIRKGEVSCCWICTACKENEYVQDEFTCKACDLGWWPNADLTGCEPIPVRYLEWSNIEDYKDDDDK
Assay: HTRF, soluble ECD
Protocol: (§1) Binding of antibodies to mGluR5/mGluRJ measured via Homogeneous Time-Resolved Fluorescence (HTRF). Binding assays were performed using HTRF reagents from CisBio. Ten microliters of an antibody dilution series (highest final concentration of 30 nM) was incubated with 10 μl of mGluR-ECD (10 nM final concentration) in HTRF buffer (50 mM Phosphate buffer pH7, 0.8M KF (potassium fluoride), 0.2% BSA). Twenty microliters of Europium-labeled anti-hu-Fc donor (2 nM final concentration, CisBio Catalog No. 61HFCKLB) and 20 μl of XL665-labeled anti-Flag acceptor (60 nM final concentration, CisBio Catalog No. 61FG2XLB) were added to each well and incubated for 1 hour at room temperature. Alternatively, the antibody dilution series was incubated with 10 μl of biotinylated mGluR-ECD (10 nM final concentration), and 20 μl of Europium-labeled anti-hu-Fc donor (2 nM final concentration) and 20 μl of d2-labeled streptavidin acceptor (60 nM final concentration, CisBio Catalog No. 610SADLB) were added to each well. Fluorescence was measured at 620 and 665 nm with a delay of 300 μsec. Results were expressed as the ratio of signal at 665 nm over 620 nm. EC₅₀ values were calculated for binding of Ab1-Ab23 to human-mGluR5-ECD, of Ab1-Ab21 to rat-mGluR5-ECD, and of Ab1, Ab2 and Ab4-Ab12 to monkey-mGluR5-ECD and to human-mGluR1-ECD (TABLE 1).

Binder | binding result
B7 | no binding
B8 | no binding
B9 | no binding
B10 | no binding
B11 | no binding
B12 | no binding
B13 | no binding
B14 | no binding

Biological target: T2, rat mGluR5 extracellular domain (rat-mGluR5-ECD) (rat, UniProt P31424 21-504)
T2 construct: ECD construct made 'in a similar fashion' to the human one
T2 sequence (P31424 other isoform, or with tags, fused parts or gaps limits assumed, form in doubt): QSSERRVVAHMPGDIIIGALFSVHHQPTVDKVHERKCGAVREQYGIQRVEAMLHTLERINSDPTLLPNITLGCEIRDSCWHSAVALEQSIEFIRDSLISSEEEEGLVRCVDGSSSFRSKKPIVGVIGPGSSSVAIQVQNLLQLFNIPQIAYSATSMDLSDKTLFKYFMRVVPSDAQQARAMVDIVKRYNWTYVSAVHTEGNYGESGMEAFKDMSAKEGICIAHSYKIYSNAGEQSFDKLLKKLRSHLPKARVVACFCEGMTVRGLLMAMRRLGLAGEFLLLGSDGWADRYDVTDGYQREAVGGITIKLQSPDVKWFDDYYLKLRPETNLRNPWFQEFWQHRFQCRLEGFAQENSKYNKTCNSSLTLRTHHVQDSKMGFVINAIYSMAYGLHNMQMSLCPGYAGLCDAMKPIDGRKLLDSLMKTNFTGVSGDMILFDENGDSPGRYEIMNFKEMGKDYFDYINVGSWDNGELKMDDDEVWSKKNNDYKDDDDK
Assay: HTRF, soluble ECD
Protocol: as §1

Binder | EC50 [nM]
B7 | 0.476
B8 | 0.848
B9 | 0.423
B10 | 0.991
B11 | 0.311
B12 | 0.771
B13 | 0.63
B14 | 0.519

Biological target: T3, cynomolgus monkey mGluR5 extracellular domain (monkey-mGluR5-ECD) (cynomolgus monkey, UniProt P41594 21-580 (human entry), limits assumed)
T3 construct: ECD construct made 'in a similar fashion' to the human one; also called cyno-mGluR5
T3 sequence (P41594 other isoform, or with tags, fused parts or gaps limits assumed): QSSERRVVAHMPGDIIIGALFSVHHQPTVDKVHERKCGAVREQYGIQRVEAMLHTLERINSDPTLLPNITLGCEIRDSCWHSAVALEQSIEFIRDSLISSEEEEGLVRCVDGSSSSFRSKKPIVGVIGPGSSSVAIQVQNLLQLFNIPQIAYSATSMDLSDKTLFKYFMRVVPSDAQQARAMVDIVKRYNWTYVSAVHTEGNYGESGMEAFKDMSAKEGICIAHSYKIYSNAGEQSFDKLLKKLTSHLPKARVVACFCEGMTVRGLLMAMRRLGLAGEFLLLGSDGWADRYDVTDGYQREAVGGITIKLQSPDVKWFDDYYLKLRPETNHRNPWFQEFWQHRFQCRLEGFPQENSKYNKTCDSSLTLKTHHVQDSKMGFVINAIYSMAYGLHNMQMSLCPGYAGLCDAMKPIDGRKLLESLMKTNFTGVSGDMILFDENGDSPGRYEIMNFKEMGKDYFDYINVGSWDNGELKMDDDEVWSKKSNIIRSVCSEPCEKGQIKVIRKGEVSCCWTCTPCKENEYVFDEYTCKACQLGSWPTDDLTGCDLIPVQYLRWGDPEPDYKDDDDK
Assay: HTRF, soluble ECD
Protocol: as §1

Binder | EC50 [nM]
B7 | 0.36
B8 | 0.339
B9 | 0.255
B10 | 0.359
B11 | 0.31
B12 | 0.424
B13 | 0.37
B14 | 0.398

Biological target: full-length (FL) human mGluR5 on BA/F3-mGluR5 clone 10C9 cells (human) (UniProt P41594)
Assay: flow cytometry, BA/F3-mGluR5 10C9 cells, 10 ug/ml antibody

Binder | mGluR5 (FL) cell binding-fold over background [fold]
B7 | 40.3
B8 | 27.9
B9 | 37
B10 | 31.9
B1 | 37.2
B2 | 37.9
B3 | 39.4
B4 | 37.8
B5 | 38.9
B6 | 39.6
B11 | 36.3
B12 | 24.4
B13 | 28.9
B14 | 28.4

Biological target: full-length (FL) human mGluR5 on BA/F3-mGluR5 clone 10C9 cells (human) (UniProt P41594)
Assay: cell-based or functional assay

Binder | pERK Assay Inhibition IC50-nM [nM]
B7 | 0.16
B8 | 1.07
B9 | 0.14
B10 | 3.73
B1 | 0.1
B2 | 0.11
B3 | 0.1
B4 | 0.06
B5 | 0.11
B6 | 0.09
B11 | 1.51
B12 | 4.29
B13 | 1.34
B14 | 2.97

Biological target: human mGluR5 extracellular domain (human-mGluR5-ECD) (human) (UniProt P41594)
Assay: AlphaLISA, biotinylated ECD
Remark: another data set of the same source

Binder | EC50 [nM]
B1 | 0.0947
B2 | 0.0915
B3 | 0.101
B4 | 0.0772
B5 | 0.0918
B6 | 0.0891

Biological target: human mGluR5 extracellular domain (human-mGluR5-ECD) (human) (UniProt P41594)
Assay: HTRF, soluble ECD
Remark: another data set of the same source

Binder | EC50 [nM]
B7 | 0.341
B8 | 0.409
B9 | 0.545
B10 | 0.775
B11 | 0.54
B12 | 0.415
B13 | 1.02
B14 | 0.998
